From patent US20120316071A1 (published 2012) come the findings set out here.

In experiment [1] the target is T1, rHuman EGF R/Fc Chimera, CF (R&D Systems Cat#344-ER) (human, UniProt P00533 25-645).
T1 construct: Bought recombinant Fc chimera; also called epidermal growth factor receptor; Fc part of the bought chimera not given
The experiment is described as follows: ECL Multispot (MSD) assay, antigen spotted on plate, 10 nM Fab; blank spot 367.

Experiment [2] concerns the target T2, rHuman HGF R/c-MET/Fc Chimera, CF (R&D Systems Cat#358-MT/CF) (human, UniProt P08581 25-932).
T2 construct: Bought recombinant Fc chimera; also called HGF R/Fc; hepatocyte growth factor receptor; Fc part of the bought chimera not given
The experiment is described as above.

The target in experiment [3] is T3, rHuman Notch-1/Fc Chimera, CF (R&D Systems Cat#3647-TK) (human, UniProt P46531 19-526).
T3 construct: Bought recombinant Fc chimera; Fc part of the bought chimera not given
The experiment is described as above.

Experiment [4] concerns the target T4, rHuman CD44/Fc Chimera, CF (R&D Systems Cat#3660-CD) (human, UniProt P16070 21-220).
T4 construct: Bought recombinant Fc chimera; Fc part of the bought chimera not given
Described as above.

Experiment [5] deals with T5, rHuman IGF-1 sR, CF (R&D Systems Cat#391-GR) (human, UniProt P08069 31-932).
T5 construct: Bought soluble receptor; also called insulin-like growth factor-1 soluble receptor
Described as above.

Experiment [6] deals with T6, rHuman P-Cadherin/Fc Chimera, CF (R&D Systems Cat#861-PC) (human, UniProt P22223 108-654).
T6 construct: Bought recombinant Fc chimera; Fc part of the bought chimera not given
The description is as above.

Experiment [7] addresses T7, rHuman Erythropoietin R/Fc Chimera, CF (R&D Systems Cat#963-ER) (human, UniProt P19235 25-250).
T7 construct: Bought recombinant Fc chimera; also called EPO R; EPO R/Fc; Fc part of the bought chimera not given
T7 sequence (looked up): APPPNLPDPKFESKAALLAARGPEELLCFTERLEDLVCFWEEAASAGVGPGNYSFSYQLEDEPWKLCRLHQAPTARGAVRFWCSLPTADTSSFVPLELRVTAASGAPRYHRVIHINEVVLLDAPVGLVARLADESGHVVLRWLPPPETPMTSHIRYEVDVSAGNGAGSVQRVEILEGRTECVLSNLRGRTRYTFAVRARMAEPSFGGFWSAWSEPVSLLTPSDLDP
The description is as above.

In experiment [8] the target is T8, Recombinant Human DLL4 (R&D Systems Cat#1506-D4/CF) (human, UniProt Q9NR61 27-524).
T8 construct: Bought recombinant protein; also called delta-like protein 4; rHuman DLL4
The description is as above.

Experiment [9] has as its target T9, rHuman ErbB2/Fc Chimera, CF (R&D Systems Cat#1129-ER) (human, UniProt P04626 23-652).
T9 construct: Bought recombinant Fc chimera; also called human epidermal growth factor 2 receptor; Fc part of the bought chimera not given
The experiment is described as above.

For experiment [10], the target named is T1, rHuman EGF R/Fc Chimera, CF (R&D …). The experiment in a line: ECL Multispot (MSD) assay, antigen spotted on plate, 10 nM Fab; blank spot 322.
The target in experiment [11] is T2, rHuman HGF R/c-MET/Fc Chimera, CF (R&D …). The description is as above.
The target in experiment [12] is T3, rHuman Notch-1/Fc Chimera, CF (R&D …). The experiment is described as above.
Experiment [13] deals with T4, rHuman CD44/Fc Chimera, CF (R&D Systems …). Described as above.
Experiment [14] addresses T5, rHuman IGF-1 sR, CF (R&D Systems …). The experiment is described as above.
Experiment [15] addresses T6, rHuman P-Cadherin/Fc Chimera, CF (R&D …). The description is as above.
For experiment [16], the target named is T7, rHuman Erythropoietin R/Fc Chimera, CF …. Described as above.
Experiment [17] has as its target T8, Recombinant Human DLL4 (R&D Systems …). The experiment is described as above.
Experiment [18] deals with T9, rHuman ErbB2/Fc Chimera, CF (R&D …). The experiment is described as above.
Experiment [19] deals with T1, rHuman EGF R/Fc Chimera, CF (R&D …). The experiment in a line: ECL Multispot (MSD) assay, antigen spotted on plate, 10 nM Fab; blank spot 151.
For experiment [20], the target named is T2, rHuman HGF R/c-MET/Fc Chimera, CF (R&D …). Described as above.
In experiment [21] the target is T3, rHuman Notch-1/Fc Chimera, CF (R&D …). The description is as above.
Experiment [22] concerns the target T4, rHuman CD44/Fc Chimera, CF (R&D Systems …). Described as above.
Experiment [23] deals with T5, rHuman IGF-1 sR, CF (R&D Systems …). The description is as above.
The target in experiment [24] is T6, rHuman P-Cadherin/Fc Chimera, CF (R&D …). Described as above.
For experiment [25], the target named is T7, rHuman Erythropoietin R/Fc Chimera, CF …. The experiment is described as above.
Experiment [26] addresses T8, Recombinant Human DLL4 (R&D Systems …). The description is as above.
Experiment [27] has as its target T9, rHuman ErbB2/Fc Chimera, CF (R&D …). The description is as above.

T2 sequence (P08581 25-932, change not shown): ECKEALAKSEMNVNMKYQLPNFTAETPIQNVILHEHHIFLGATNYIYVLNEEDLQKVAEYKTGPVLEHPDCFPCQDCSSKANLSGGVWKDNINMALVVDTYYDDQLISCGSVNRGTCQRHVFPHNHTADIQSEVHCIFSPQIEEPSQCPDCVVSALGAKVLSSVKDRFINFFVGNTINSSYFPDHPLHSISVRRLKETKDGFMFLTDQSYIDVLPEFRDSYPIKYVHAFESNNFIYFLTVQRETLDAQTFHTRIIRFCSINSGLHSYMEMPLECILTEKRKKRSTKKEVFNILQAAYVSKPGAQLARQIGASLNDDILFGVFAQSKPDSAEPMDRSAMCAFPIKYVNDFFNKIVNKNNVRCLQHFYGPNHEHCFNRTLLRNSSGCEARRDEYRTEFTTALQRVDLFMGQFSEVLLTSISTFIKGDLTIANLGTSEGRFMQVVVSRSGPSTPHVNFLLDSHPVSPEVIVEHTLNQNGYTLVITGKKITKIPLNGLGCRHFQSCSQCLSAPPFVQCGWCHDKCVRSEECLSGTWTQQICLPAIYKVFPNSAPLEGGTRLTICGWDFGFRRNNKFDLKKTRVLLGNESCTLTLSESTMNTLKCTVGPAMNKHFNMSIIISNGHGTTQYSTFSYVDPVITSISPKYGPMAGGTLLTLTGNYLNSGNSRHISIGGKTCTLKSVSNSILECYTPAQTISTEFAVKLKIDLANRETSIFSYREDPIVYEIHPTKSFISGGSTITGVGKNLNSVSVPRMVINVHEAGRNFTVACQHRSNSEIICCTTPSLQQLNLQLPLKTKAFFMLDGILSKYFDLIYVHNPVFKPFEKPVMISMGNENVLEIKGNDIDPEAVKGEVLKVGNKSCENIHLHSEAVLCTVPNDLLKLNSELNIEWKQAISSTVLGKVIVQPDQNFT

B1: Fab VH1-46_IGHD6-6*01_IGHJ1*01 S102A/S103P/S104F/H111F S84K & L6_IGKJ1*01 (Fab, V domains shown)
VH: QVQLVQSGAEVKKPGASVKVSCKASGYTFTSYYMHWVRQAPGQGLEWMGIINPSGGSTSYAQKFQGRVTMTRDTSTSTVYMELKSLRSEDTAVYYCAREEYAPFSAEYFQFWGQGTLVTVSS
VL: not shown
notes: Fab expressed in E. coli: VH joined to CH1 from Plasmid A (with His6 and Flag tags), VL joined to kappa CL from Plasmid C; also called APFF S84K
Consider B1, for which the ECL signal in experiment [1] stood at 301; in experiment [2] it was 317; in [3] it was 400; in experiment [4] it was 386; in experiment [5], 405; in experiment [6], 517. Moreover, the figures for the ECL signal in [7], in experiment [8] and in experiment [9] were 528, 164000 and 354, respectively.

B2: Fab VH1-46_IGHD6-6*01_IGHJ1*01 S102A/S103P/S104F/H111F S84R & L6_IGKJ1*01 (Fab, V domains shown)
VH: QVQLVQSGAEVKKPGASVKVSCKASGYTFTSYYMHWVRQAPGQGLEWMGIINPSGGSTSYAQKFQGRVTMTRDTSTSTVYMELRSLRSEDTAVYYCAREEYAPFSAEYFQFWGQGTLVTVSS
VL: not shown
notes: Fab expressed in E. coli: VH joined to CH1 from Plasmid A (with His6 and Flag tags), VL joined to kappa CL from Plasmid C; also called APFF S84R
Take B2: the ECL signal in experiment [10] stood at 435; in [11], 392; in experiment [12], 377; in [13], 335; in [14] it was 395; in experiment [15] it was 310. Besides, the ECL signal in experiment [16] was determined as 393; in [17] it was 139000; in experiment [18], 372.

B3: Fab VH1-46_IGHD6-6*01_IGHJ1*01 S102A/S103P/S104F/H111F S84T & L6_IGKJ1*01 (Fab, V domains shown)
VH: QVQLVQSGAEVKKPGASVKVSCKASGYTFTSYYMHWVRQAPGQGLEWMGIINPSGGSTSYAQKFQGRVTMTRDTSTSTVYMELTSLRSEDTAVYYCAREEYAPFSAEYFQFWGQGTLVTVSS
VL: not shown
notes: Fab expressed in E. coli: VH joined to CH1 from Plasmid A (with His6 and Flag tags), VL joined to kappa CL from Plasmid C; also called APFF S84T
For B3, the ECL signal was determined as 293 in experiment [19]; 274 in experiment [20]; 372 in experiment [21]; 352 in experiment [22]; 281 in experiment [23]; 180 in experiment [24]. Besides, the ECL signal came out at 328 in experiment [25], 163000 in experiment [26] and 297 in [27].
